Where no end group is shown, it is not given here. [ ]: non-standard residue; d: D form. Hyp = O=C(O)[C@@H]1C[C@@H](O)CN1
What was measured:
[1] = test system: α-fetoprotein (“AFP”) receptor; details: MCF-7 human breast cancer cells; cited from earlier work
[2] = Relaxivity of the contrast agent (effect on T1 relaxation of water protons); format: physicochemical; details: for relaxivity: globular vs elongated conformation
Source text: When the carrier molecule is in an elongated conformation, the chelator entity, which provides the MR activity, is free to rotate about its attachment point to the main chain, allowing a […] T1 relaxation time of the surrounding water protons, which are the source of the MR signal. When the carrier molecule is in a globular or highly folded conformation, the paramagnetic ions on the chelator entities tumble at a slower rate (along with the entire molecule). […] A low relaxivity or long relaxation time is associated with an elongated molecule such as a highly substituted Gd-DTPA-PLL, in which the Gd can rotate rapidly, having a relaxivity of about 8 sec^−1 mM^−1. When the relaxivity of a peptide contrast agent was high, the uptake coefficient of such an agent was invariably low, evidently due to the absence of a reptation movement of the contrast agent molecule, resulting in the exclusion of the contrast agent from narrow passages. Thus, it is important to establish that the peptides being compared for optimum length are all of the same conformation.

[3] = Cross-sectional diameter of the conjugated polymer; format: physicochemical; details: highly conjugated

For “EMTOVNOG (EMT[Hyp]VN[Hyp]G) [linear octapeptide; O represents 4-hydroxyproline]”, the “bind to α-fetoprotein (“AFP”) receptor” value [1] is given as “bind”.

In the case of “EMTOVNOGQ (EMT[Hyp]VN[Hyp]GQ; also: cyclic, mode not given here) [cyclic peptide; O represents 4-hydroxyproline]”, the “bind to α-fetoprotein (“AFP”) receptor” value [1] is given as “bind”.

With Gd-DTPA-PLL the relaxivity [2] was “about 8 sec^−1 mM^−1”, the relaxivity in bulk water ([2]; highly conjugated (degree of conjugation about 90 percent or higher)) was 6.8 to 7.8 mM⁻¹ s⁻¹ and the cross-sectional diameter [3] was “about 25 angstroms”.

In the case of albumin, the relaxivity [2] is reported as “about 15 sec^−1 mM^−1”.
